{
  "source": "patent US20130177960",
  "test_in_all_cases": "cell_activity",
  "key": {"[1]": {"system": "SBS34077 ZFN (synthetic)", "details": "pair with 33115, D17 cells"}, "[2]": {"system": "SBS33115 ZFN (synthetic)", "details": "pair with 34077, D17 cells"}, "[3]": {"system": "SBS35393 ZFN (synthetic)", "details": "pair with 35361"}, "[4]": {"system": "SBS30724 ZFN (synthetic)", "details": "pair with 30725, AAV in mouse liver, Cel-I"}, "[5]": {"system": "SBS30872 ZFN (synthetic)", "details": "pair with 30873, AAV8 in mouse liver, Cel-I; up to 17% over both pairs"}, "[6]": {"system": "SBS36808 ZFN (synthetic)", "details": "pair with 35396, RF/6A"}, "[7]": {"system": "SBS36806 ZFN (synthetic)", "details": "pair with 35396, RF/6A"}, "[8]": {"system": "SBS36820 ZFN (synthetic)", "details": "pair with 35396, RF/6A"}, "[9]": {"system": "SBS36819 ZFN (synthetic)", "details": "pair with 35396, RF/6A"}, "[10]": {"system": "SBS36813 ZFN (synthetic)", "details": "pair with 35396, RF/6A"}, "[11]": {"system": "SBS30873 ZFN (synthetic)", "details": "pair with 30872, AAV8 in mouse liver, Cel-I; up to 17% over both pairs"}, "[12]": {"system": "SBS30725 ZFN (synthetic)", "details": "pair with 30724, AAV in mouse liver, Cel-I"}, "[13]": {"system": "SBS35370 ZFN (synthetic)", "details": "pair with 35396"}},
  "data": [
    {"sequence": "AAGTCATGTGGAGAGAAACACAAAGAGT (double strand) [34077 site]", "values": [
      {"measurement": "activity", "setting": "[1]", "value": 30, "unit": "% indels"}
    ]},
    {"sequence": "AGTATTCGTTTGCTCCAAAATATTTGCC (double strand) [33115 site]", "values": [
      {"measurement": "activity", "setting": "[2]", "value": 30, "unit": "% indels"}
    ]},
    {"sequence": "CCTATCCATTGCACTATGCTTTATTTAA (double strand) [human locus 2 left site (conserved in rhesus)]", "values": [
      {"measurement": "activity (% mutated targets)", "setting": "[3]", "value": 18}
    ]},
    {"sequence": "CTGAAGGTGGCAATGGTTCCTCTCTGCT (double strand) [30724 site]", "values": [
      {"measurement": "activity", "setting": "[4]", "value": "< 21", "unit": "% indels"}
    ]},
    {"sequence": "CTTGGCTGTGTAGGAGGGGAGTAGCAGT (double strand) [30872 site]", "values": [
      {"measurement": "activity", "setting": "[5]", "value": "< 17", "unit": "% indels"}
    ]},
    {"sequence": "TTAGGGACAGTTATGAATTCAATCTTCA (double strand) [rhesus partner site]", "values": [
      {"measurement": "activity", "setting": "[6]", "value": 26, "unit": "% indels"},
      {"measurement": "activity", "setting": "[7]", "value": 20.5, "unit": "% indels"},
      {"measurement": "activity", "setting": "[8]", "value": 23, "unit": "% indels"},
      {"measurement": "activity", "setting": "[9]", "value": 30, "unit": "% indels"},
      {"measurement": "activity", "setting": "[10]", "value": 21, "unit": "% indels"}
    ]},
    {"sequence": "TTCCTAAGTTGGCAGTGGCATGCTTAAT (double strand) [30873 site]", "values": [
      {"measurement": "activity", "setting": "[11]", "value": "< 17", "unit": "% indels"}
    ]},
    {"sequence": "TTTCCTGTAACGATCGGGAACTGGCATC (double strand) [30725 site]", "values": [
      {"measurement": "activity", "setting": "[12]", "value": "< 21", "unit": "% indels"}
    ]},
    {"sequence": "TTTGGGATAGTTATGAATTCAATCTTCA (double strand) [human locus 2 partner site]", "values": [
      {"measurement": "activity (% mutated targets)", "setting": "[13]", "value": 22}
    ]}
  ]
}
